*1 amine or outer side, *2 acyl side, *3 side chain or, on linkers, in order; H or OH if unused. Where a SMILES comes first, the peptide text is derived from it. [ ]: non-standard residue; d: D form. The star is where a group is joined. ξ: configuration not given here. Dil(5ξ) = CCC(C)[C@@H]([C@@H](CC(=O)[*:2])OC)N(C)[*:1]; Dolaproine = CO[C@@H]([C@@H]1CCCN1)[C@@H](C)C(=O)O; Hexanoyl(6-maleimido) = O=C1C=CC(=O)N1CCCCCC(=O)*; PABC = O=C(OCc1ccc(N[*:1])cc1)[*:2]; X1 = C[C@@H](N*)[C@@H](O)c1ccccc1; Cit = NC(=O)NCCC[C@H](N)C(=O)O; NMeV = CN[C@H](C(=O)O)C(C)C
Assay: Hydrolysis of Pertuzumab conjugated samples obtained using different small molecule compounds, hydrolysis percentage by Native MS
Assay type: physicochemical
Details: for hydrolysis of conjugated samples (in words) / 6 h hydrolysis percentage / 18 h hydrolysis percentage: 50 mM PB pH 7.8, 35° C.; for hydrolysis of conjugated samples (in words): summary of Table 3-2; for hydrolysis speed of conjugated samples (in words): hydrolysis systems A-D, pH 7.8, summary of Table 3-3
Protocol: The analysis conditions were as follows: • Capillary activation: the capillary was rinsed with 0.1 mol/L sodium hydroxide for 10 min, 0.1 mol/L hydrochloric acid for 5 min and water for injection for 2 min respectively at 20 psi; and then rinsed with SDS-MW-Gel Buffer for 10 min at 70 psi; afterwards, pre-separation was performed for 10 min at 20 psi, at a column temperature of 25° C. and a voltage of −15 kv. The program was run: at 70 psi, the capillary was rinsed with 0.1 mol/L sodium hydroxide for 3 min, 0.1 mol/L hydrochloric acid for 1 min and water for injection for 1 min respectively; then the gel was poured for 10 min, the sample was loaded for 40 s at −5 kv, and the separation program was run ([…], 20 psi). The column temperature was set to 25° C., the voltage for separation was set to −15 kv, and the separation was performed for 40 min. • (4) Size exclusion chromatography (SEC-HPLC): • Sample treatment: the sample was diluted to 2.0-3.0 mg/ml with the mobile phase, and then was centrifuged at 12000 rpm for 10 min; and the supernatant was taken for analysis. • Chromatographic column: TOSOH, TSKgel G3000SWXL, 5 μm, 7.8 mm×300 mm; • Mobile phase: 100 mM PB+200 mM arginine hydrochloride, 5% isopropanol (pH 6.8); • Flow rate: 0.6 mL/min; • Detection wavelength: 280 nm; • Column temperature: 30° C.; • Loading volume: 10 uL; • Elution gradient: isocratic elution. • (5) Native MS: • Chromatographic column: ACQUITY UPLC Protein BEH SEC 200A (1.7 μm, 2.1 mm×150 mm); • Mobile phase: 50 mM ammonium acetate; • Running time: 12 min; • Flow rate: 0.065 mL/min; • Loading volume: 2 μL; • Column temperature: 30° C.; • Detection wavelength: 280 nm; • Capillary: 3.0 kV; • Cone voltage: 140 V; • Source offset: 80 V; • Source temperature: 125° C.; • Desolvation temperature: 250° C.; • Desolvation gas flow: 600 L/h. • (6) LC-MS:
Pertuzumab was reduced and conjugated as described in section a in Example 2. Conjugated samples obtained using different small molecule compounds were subjected to hydrolysis at 35° C. for a time period in the range of 3-18 hours, in 50 mM sodium dihydrogen phosphate-disodium hydrogen phosphate buffer, pH 7.8. The hydrolysis systems were sampled at different time points, and detected by Native MS.
Pertuzumab was reduced and conjugated as described in section a in Example 2. Conjugated samples obtained using different small molecule compounds were displaced to different hydrolysis solution systems (A: 50 mM sodium dihydrogen phosphate-disodium hydrogen phosphate buffer, pH 7.8; B: 50 mM sodium dihydrogen phosphate-disodium hydrogen phosphate buffer+3% arginine, pH 7.8; C: 50 mM potassium dihydrogen phosphate-dipotassium hydrogen phosphate buffer, pH 7.8; and D: 50 mM tromethamine-hydrochloric acid buffer, pH 7.8) for hydrolysis. Then the hydrolysis systems were sampled at different time points, and detected by Native MS.

[1] = Pertuzumab conjugate, Native MS
[2] = Pertuzumab conjugate, 50 mM sodium dihydrogen phosphate-disodium hydrogen phosphate buffer, pH 7.8, 35° C., Native MS
[3] = hydrolysis system A: 50 mM sodium dihydrogen phosphate-disodium hydrogen phosphate buffer, pH 7.8
[4] = hydrolysis system B: 50 mM sodium phosphate buffer+3% arginine, pH 7.8
[5] = hydrolysis system C: 50 mM potassium dihydrogen phosphate-dipotassium hydrogen phosphate buffer, pH 7.8
[6] = hydrolysis system D: 50 mM tromethamine-hydrochloric acid buffer, pH 7.8

| SMILES | hydrolysis of conjugated samples (in words) | 6 h hydrolysis percentage [1] | 18 h hydrolysis percentage [1] | 3 h hydrolysis percentage [2] | 1 h hydrolysis percentage [3] | 3 h hydrolysis percentage [3] | 1 h hydrolysis percentage [4] | 3 h hydrolysis percentage [4] | 1 h hydrolysis percentage [5] | 3 h hydrolysis percentage [5] | 1 h hydrolysis percentage [6] | 3 h hydrolysis percentage [6] | hydrolysis speed of conjugated samples (in words) |
| --- | --- | --- | --- | --- | --- | --- | --- | --- | --- | --- | --- | --- | --- |
| CCC(C)[C@@H]([C@@H](CC(=O)N1CCC[C@H]1[C@H](OC)[C@@H](C)C(=O)N[C@H](C)[C@@H](O)c1ccccc1)OC)N(C)C(=O)[C@@H](NC(=O)[C@H](C(C)C)N(C)C(=O)OCc1ccc(NC(=O)[C@H](CCCNC(N)=O)NC(=O)[C@@H](NC(=O)COCCOCCOCCOc2c(OC)cc(N3C(=O)C(Sc4ccccc4)=C(Sc4ccccc4)C3=O)cc2OC)C(C)C)cc1)C(C)C (stereo partly shown) [A-2] | relatively low percentage of hydrolysis | 30.33% | 48.43% | 17.85% | – | – | – | – | – | – | – | – | – |
| CCC(C)[C@@H]([C@@H](CC(=O)N1CCC[C@H]1[C@H](OC)[C@@H](C)C(=O)N[C@H](C)[C@@H](O)c1ccccc1)OC)N(C)C(=O)[C@@H](NC(=O)[C@H](C(C)C)N(C)C(=O)OCc1ccc(NC(=O)[C@H](CCCNC(N)=O)NC(=O)[C@@H](NC(=O)COCCOCCOCCOc2c(F)cc(N3C(=O)C(Sc4ccccc4)=C(Sc4ccccc4)C3=O)cc2F)C(C)C)cc1)C(C)C (stereo partly shown) [A-3] | – | – | – | – | 89.31% | 99.32% | 93.48% | 99.41% | 92.52% | 99.70% | 90.33% | 99.31% | hydrolyzed rapidly in all above buffers |
| CCC(C)[C@@H]([C@@H](CC(=O)N1CCC[C@H]1[C@H](OC)[C@@H](C)C(=O)N[C@H](C)[C@@H](O)c1ccccc1)OC)N(C)C(=O)[C@@H](NC(=O)[C@H](C(C)C)N(C)C(=O)OCc1ccc(NC(=O)[C@H](CCCNC(N)=O)NC(=O)[C@@H](NC(=O)COCCOCCOCCOc2ccc(N3C(=O)C(Sc4ccccc4)=C(Sc4ccccc4)C3=O)c(C(F)(F)F)c2)C(C)C)cc1)C(C)C (stereo partly shown) [A-4] | relatively low percentage of hydrolysis | 38.49% | 53.46% | 25.99% | 15.65% | 25.99% | 18.17% | 35.23% | 14.98% | 26.13% | 14.56% | 25.32% | required more time for being hydrolyzed |
| CCC(C)[C@@H]([C@@H](CC(=O)N1CCC[C@H]1[C@H](OC)[C@@H](C)C(=O)N[C@H](C)[C@@H](O)c1ccccc1)OC)N(C)C(=O)[C@@H](NC(=O)[C@H](C(C)C)N(C)C(=O)OCc1ccc(NC(=O)[C@H](CCCNC(N)=O)NC(=O)[C@@H](NC(=O)COCCOCCOCCOc2ccc(N3C(=O)C(Sc4ccccc4)=C(Sc4ccccc4)C3=O)cn2)C(C)C)cc1)C(C)C (stereo partly shown) [A-5] | – | 16.76% | 28.81% | 7.29% | – | – | – | – | – | – | – | – | – |
| CCC(C)[C@@H]([C@@H](CC(=O)N1CCC[C@H]1[C@H](OC)[C@@H](C)C(=O)N[C@H](C)[C@@H](O)c1ccccc1)OC)N(C)C(=O)[C@@H](NC(=O)[C@H](C(C)C)N(C)C(=O)OCc1ccc(NC(=O)[C@H](CCCNC(N)=O)NC(=O)[C@@H](NC(=O)COCCOCCOCCOc2ccc(N3C(=O)C(Sc4ccc(C(=O)NC)cc4)=C(Sc4ccc(C(=O)NC)cc4)C3=O)cc2C(F)(F)F)C(C)C)cc1)C(C)C (stereo partly shown) [B-6] | relatively low percentage of hydrolysis | 33.32% | 47.60% | 22.86% | – | – | – | – | – | – | – | – | – |
| CCC(C)[C@@H]([C@@H](CC(=O)N1CCC[C@H]1[C@H](OC)[C@@H](C)C(=O)N[C@H](C)[C@@H](O)c1ccccc1)OC)N(C)C(=O)[C@@H](NC(=O)[C@H](C(C)C)N(C)C(=O)OCc1ccc(NC(=O)[C@H](CCCNC(N)=O)NC(=O)[C@@H](NC(=O)COCCOCCOCCOc2ccc(N3C(=O)C(Sc4ccc(C(=O)NC)cc4)=C(Sc4ccc(C(=O)NC)cc4)C3=O)cc2OC)C(C)C)cc1)C(C)C (stereo partly shown) [B-7] | relatively low percentage of hydrolysis | 54.71% | 76.15% | 34.10% | 15.83% | 34.10% | 26.12% | 51.25% | 15.12% | 35.12% | 16.62% | 36.43% | required more time for being hydrolyzed |
| CCC(C)[C@@H]([C@@H](CC(=O)N1CCC[C@H]1[C@H](OC)[C@@H](C)C(=O)N[C@H](C)[C@@H](O)c1ccccc1)OC)N(C)C(=O)[C@@H](NC(=O)[C@H](C(C)C)N(C)C(=O)OCc1ccc(NC(=O)[C@H](CCCNC(N)=O)NC(=O)[C@@H](NC(=O)COCCOCCOCCOc2ccc(N3C(=O)C(Sc4ccc(C(=O)N5CCOCC5)cc4)=C(Sc4ccc(C(=O)N5CCOCC5)cc4)C3=O)cc2)C(C)C)cc1)C(C)C (stereo partly shown) [C-1] | hydrolyzed all most completely within 3 hours or 6 hours | 98.25% | – | 79.08% | 85.31% | 99.56% | 94.52% | 99.87% | 87.52% | 99.70% | 84.78% | 99.79% | hydrolyzed rapidly in all above buffers |
| CCC(C)[C@@H]([C@@H](CC(=O)N1CCC[C@H]1[C@H](OC)[C@@H](C)C(=O)N[C@H](C)[C@@H](O)c1ccccc1)OC)N(C)C(=O)[C@@H](NC(=O)[C@H](C(C)C)N(C)C(=O)OCc1ccc(NC(=O)[C@H](CCCNC(N)=O)NC(=O)[C@@H](NC(=O)COCCOCCOCCOc2c(F)cc(N3C(=O)C(Sc4ccc(C(=O)N5CCOCC5)cc4)=C(Sc4ccc(C(=O)N5CCOCC5)cc4)C3=O)cc2F)C(C)C)cc1)C(C)C (stereo partly shown) [C-3] | hydrolyzed all most completely within 3 hours or 6 hours | 99.56% | – | 98.31% | 90.31% | 99.56% | 97.52% | 99.41% | 90.55% | 99.70% | 88.36% | 99.34% | hydrolyzed rapidly in all above buffers |
| CCC(C)[C@@H]([C@@H](CC(=O)N1CCC[C@H]1[C@H](OC)[C@@H](C)C(=O)N[C@H](C)[C@@H](O)c1ccccc1)OC)N(C)C(=O)[C@@H](NC(=O)[C@H](C(C)C)N(C)C(=O)OCc1ccc(NC(=O)[C@H](CCCNC(N)=O)NC(=O)[C@@H](NC(=O)CCCCCN2C(=O)C=CC2=O)C(C)C)cc1)C(C)C (stereo partly drawn) [D-1] ({Hexanoyl(6-maleimido)}-V[Cit][PABC][NMeV]V[Dil(5ξ)][Dolaproine]-X1) | – | 7.67% | 21.44% | 4.74% | – | – | – | – | – | – | – | – | – |

Source: US20230372526A1, “PREPARATION METHOD FOR BIS-S[…] ANTIBODY-DRUG CONJUGATE” (MABWELL (SHANGHAI) BIOSCIENCE CO., LTD., priority 2020, published 2023)
